Data on 5 molecules can be found in article PMC4599338 (Microbial Cell Factories, 2015).

Where a chain is given by its changes, count along the chain named.

B1: AC (VHH)
VHH: DVQLQASGGGLVQPGGSLRLTCAASGLIFGSYAMGWFRQAPGKAREFVAAISWSGGDTYADSVKGRFTISRDNAKNTVYLQMNSLEPEDTAVYSCAAVGSKYYISKDAKDYGYWGQGTQVTVSS
B2: sdAb clone L1-G2 (VHH)
VHH: EVQLQASGGGLVQAGGSLRLSCTASGRAFSTTNMGWFRQAPGKEREFVTRVNWSGGVTSYADSVKGRFTLSRDNTKNTVYLQMDSLKPEDTAVYYCAGSTVWSTDRKHYNYWGQGTQVTVSS
B3: sdAb clone L1-G2+neg (VHH)
VHH: B2 VHH with Q5V, A6E, A14D, G16D, T49C, L70C
B4: sdAb clone L1-G2+ (VHH)
VHH: B2 VHH with T49C, L70C
B5: sdAb clone L1-G2+neg2 (VHH)
VHH: B2 VHH with Q5V, A6E, A14D, G16D, T49C, L70C, R72A

The first test concerns the target Staphylococcal enterotoxin B (Staphylococcus aureus, strain , UniProt P01552).
Assay: not given
Details: not given
As for B1, the binding result is reported as “binds”.

In the next test the target is Vaccinia Virus, Western Reserve, L1R Protein with C-Terminal Histidine Tag, Recombinant from baculovirus (Vaccinia virus, Western Reserve, UniProt P07612). Briefly: SPR; […] (100 to 0 nM, […], dissociation 600 s; […]; Langmuir model; […]. The settings on record: both partners purified. On the technique in general: In SPR one partner is held on a chip, and binding of the other changes the refractive index at the surface.
Regarding B2, the Kd (commonly the constant that tells how readily two partners part at equilibrium) amounted to 1.1 nM; the koff (as a rule, a measure of how fast the partners let go of each other) came out at 0.00063 s⁻¹; the on-rate constant (kon) (as a rule, a measure of how fast the partners come together) stood at 580000 M⁻¹ s⁻¹.

As to B3, the Kd was 3.3 nM, the koff stood at 0.0014 s⁻¹ and the kon amounted to 420000 M⁻¹ s⁻¹.

Take B4: the Kd was found to be 2.4 nM, the koff came to 0.0013 s⁻¹ and the kon turned out to be 590000 M⁻¹ s⁻¹.

Turning to B5, the Kd turned out to be 23 nM, the koff is 0.013 s⁻¹ and the kon was 540000 M⁻¹ s⁻¹.
